Results published in the DeepSol protein solubility set.

Experiment: soluble on expression in E. coli; label from the status in PepcDB or PDB records

| Sequence | soluble on expression in E. coli |
| --- | --- |
| MGSDKIHHHHHHMSHPPLIVHVIFHLGVGGLENGLVNLINHIPADRYRHAIICLKGFSEFHKRLNRDDVEIIALNKREGKDFSVYGKLYRVFRQLKPDIVHTRNLTAMEAQVVAAVAGVKARVHGEHGRDIFDLDGKNWKYNLLRKAIRPFIHHFITVSKDLENWLIDTVKVSPVKVHQIYNGVEHLRFHPGGTVPVEIFPPDFFAGRPFVVGSVGRMAAVKDFPTLVQAFLMLRNELSEIDRPLRLIIAGEGVARAECEAMLRSAGVEQFAWLPGERDDIPQLMQAMDVFVLPSLGEGISNTVLEAMASGLPVIATRVGGNTELVLEGETGRLVPSGDPVALARAISQYHQDNTAVYKHGQHARAIIEQQFSMRSMTNGYLAVYDRVLGYKSKTETIN | not soluble |
| MGSDKIHHHHHHMSIDNVSGTSSNTGNVNGSKRAAGSGATETGQSVKGSSNLGKDEFLKLLVAQLKNQDPMSPQQNGEFIAQLAQFSTVEGVQSLNKSMESILSNYQSSQALQASSLVGRKVIVATDKSVVDTKDTFKASLNLPVSSSNVWVNVYDDKGTVVNRINLGQQAAGSVSFMWDGKDSSGNIMPPGTYKFEAQTSIDGKTYGLQTYLPANVDSVTLGQNGGELMLNLAGLGSIALSKVQIIGQ | not soluble |
| MGSDKIHHHHHHMSKAKRLMELMMVINRKRRFTVKELAEEFSVSSRTILRDLQELSELGVPLYSEVGPHGGYEVLNERVLPPIAFTEEEAVAIFFTVHALRHFSALPFQAESSSVNHKFYSYMPEDVKERIDQLKNRFDFETPMRPLATPYLPTLLDAAIKQNVVSIEYETSQEKTKREIQPIGVYARDGFWYCPSYCFLREDMRLFRCDRITYVTEQTTNNPLNFRHVHLGNWQSYMKQERNVLDFYVELSQDGVQRCVAEQWLKPHLHIRQDGSGWLEGPFPESEVPYFSYYFIGFGHDATVKQPVQLVTLIKKSLRELLSKYNGEKEGLPQKSF | not soluble |
| MGSDKIHHHHHHMSKFWEKEFTCPFCGTKFKKKMVFFDSIKIKARDIDLKPVFEDVNPMFYEVVTCPNCYFSAFDKDFETITIKGEETERKLKKLLEEAKKKVELKNVENHVEAIKRYALSGMVYSVLNQRKKVAISYLKIAWLFRELGKSEEEKRYLERALKEFESHYKYDYYEESDEPMILFYLGVLNQILGNRKEAARWYELLLRKYDGKSLYAKVGRERWQELRRS | not soluble |
| MGSDKIHHHHHHMSKILNTQLIGIFNRLEKQSLEIQMAAQCLIQAIGGEGYVYVKGYDDLQFFESFILHSDERLKSSRKLDAIKDFKEIDSTDRVLLFAPFYNDQVALDIQKLIDLDIDVVLISNKPKTDDFPDHLVHFIDLSTPRPIVYTEDYDKIVQPHAIALNYVYYDIYTQMIEMTRDLEL | not soluble |
| MGSDKIHHHHHHMSKILSIIIPTYNAEKFLNKGLSSFLVCRDTDAQTAQHNCKMATEGRFEEIDIDKAILDKLEVIVVNDGTPDKSVEVAQKFVDWYPDTFVIVNKTNGGHGSAINTGVEHVRGKYLKVVDADDWVDTLALKKLITTLQVLEAAQEKQDTRVMDAMLMSYTTYDLQKAAKGDIPYEEHLVVPGTKHDKSVDIQNLGGPYSSQVIAKHFDDVYWGLTFHGILYNTAFYRGLAHKLAEGIFYEDQEYAAVPMAYADTIYVYDEQLYQYRIGDVSQSISMESSLKRLSHYETVIRTLIAEGGNSEEFAPGGKQIWGIKTAKFIDDYYQLCLIKNPDKKMLRDRMEKFTSEIKSADGYIYGLIEKNYKVFRMLNKLHMNEKVYQKVFIPMVHLIRK | not soluble |
| MGSDKIHHHHHHMSKMLTLAVRAHDVGTKISPVELAKKIAETNITSIQFALGISYPEYASAAVLSPGLGSQLKNIFEDEKITISVLSCYINLIHPDLEEREKRLHQFETYIRYDSMFGAKIVATETGSIYETIYYTEDNYTEEAYEEVLFSVRRLCREAEKYGIIVGIEPGINHPIHTIEKMQRLIDEVASTNLGIILDPTNLIRVDIDKTYLEIVEEAFECFGEKIVAFHLKDFIIRNQQIFPVAIGEGQVPLTETIQFLNKHKPGLFTIFEETPFEKIASAYQKVSQYHSI | not soluble |
| MGSDKIHHHHHHMSKRKLTTKFEEEPLNFGTGMWNVGLTPNVCRCTLLLPTSCMTCLVGTGRTASGRWPATYVPFDESAISELKRYASFIAISNHSDLLSDPSGSRRFICINITGRIRNGVAINYLQPYAQAVQELREGECFYFSPEEEAVLMENNQEFELQTPVGHLFQQYFRSADEGEKCETLLAVDILGRIQKKSGFKLSATKIVHLGRILRKLGVPCKKMKNGNFYCVVEL | not soluble |
